Like-named read-outs stand apart in the source and are kept apart here.
What was measured:
[1] = target: Cardiac ryanodine receptor (RyR2) in rat ventricular myocytes (rat (endogenous in ventricular myocytes)) (UniProt B0LPN4); test: FRET or BRET
[2] = target: Cardiac ryanodine receptor (RyR2) in rat ventricular myocytes (rat (endogenous in ventricular myocytes)) (UniProt B0LPN4); test: FRET or BRET; remark: listed apart in the source
[3] = target: Cardiac ryanodine receptor (RyR2) in rat ventricular myocytes (rat (endogenous in ventricular myocytes), UniProt B0LPN4 1-4955); test: other fluorescence titration
Chain of Cardiac ryanodine receptor (RyR2) in rat ventricular myocytes (B0LPN4 whole entry): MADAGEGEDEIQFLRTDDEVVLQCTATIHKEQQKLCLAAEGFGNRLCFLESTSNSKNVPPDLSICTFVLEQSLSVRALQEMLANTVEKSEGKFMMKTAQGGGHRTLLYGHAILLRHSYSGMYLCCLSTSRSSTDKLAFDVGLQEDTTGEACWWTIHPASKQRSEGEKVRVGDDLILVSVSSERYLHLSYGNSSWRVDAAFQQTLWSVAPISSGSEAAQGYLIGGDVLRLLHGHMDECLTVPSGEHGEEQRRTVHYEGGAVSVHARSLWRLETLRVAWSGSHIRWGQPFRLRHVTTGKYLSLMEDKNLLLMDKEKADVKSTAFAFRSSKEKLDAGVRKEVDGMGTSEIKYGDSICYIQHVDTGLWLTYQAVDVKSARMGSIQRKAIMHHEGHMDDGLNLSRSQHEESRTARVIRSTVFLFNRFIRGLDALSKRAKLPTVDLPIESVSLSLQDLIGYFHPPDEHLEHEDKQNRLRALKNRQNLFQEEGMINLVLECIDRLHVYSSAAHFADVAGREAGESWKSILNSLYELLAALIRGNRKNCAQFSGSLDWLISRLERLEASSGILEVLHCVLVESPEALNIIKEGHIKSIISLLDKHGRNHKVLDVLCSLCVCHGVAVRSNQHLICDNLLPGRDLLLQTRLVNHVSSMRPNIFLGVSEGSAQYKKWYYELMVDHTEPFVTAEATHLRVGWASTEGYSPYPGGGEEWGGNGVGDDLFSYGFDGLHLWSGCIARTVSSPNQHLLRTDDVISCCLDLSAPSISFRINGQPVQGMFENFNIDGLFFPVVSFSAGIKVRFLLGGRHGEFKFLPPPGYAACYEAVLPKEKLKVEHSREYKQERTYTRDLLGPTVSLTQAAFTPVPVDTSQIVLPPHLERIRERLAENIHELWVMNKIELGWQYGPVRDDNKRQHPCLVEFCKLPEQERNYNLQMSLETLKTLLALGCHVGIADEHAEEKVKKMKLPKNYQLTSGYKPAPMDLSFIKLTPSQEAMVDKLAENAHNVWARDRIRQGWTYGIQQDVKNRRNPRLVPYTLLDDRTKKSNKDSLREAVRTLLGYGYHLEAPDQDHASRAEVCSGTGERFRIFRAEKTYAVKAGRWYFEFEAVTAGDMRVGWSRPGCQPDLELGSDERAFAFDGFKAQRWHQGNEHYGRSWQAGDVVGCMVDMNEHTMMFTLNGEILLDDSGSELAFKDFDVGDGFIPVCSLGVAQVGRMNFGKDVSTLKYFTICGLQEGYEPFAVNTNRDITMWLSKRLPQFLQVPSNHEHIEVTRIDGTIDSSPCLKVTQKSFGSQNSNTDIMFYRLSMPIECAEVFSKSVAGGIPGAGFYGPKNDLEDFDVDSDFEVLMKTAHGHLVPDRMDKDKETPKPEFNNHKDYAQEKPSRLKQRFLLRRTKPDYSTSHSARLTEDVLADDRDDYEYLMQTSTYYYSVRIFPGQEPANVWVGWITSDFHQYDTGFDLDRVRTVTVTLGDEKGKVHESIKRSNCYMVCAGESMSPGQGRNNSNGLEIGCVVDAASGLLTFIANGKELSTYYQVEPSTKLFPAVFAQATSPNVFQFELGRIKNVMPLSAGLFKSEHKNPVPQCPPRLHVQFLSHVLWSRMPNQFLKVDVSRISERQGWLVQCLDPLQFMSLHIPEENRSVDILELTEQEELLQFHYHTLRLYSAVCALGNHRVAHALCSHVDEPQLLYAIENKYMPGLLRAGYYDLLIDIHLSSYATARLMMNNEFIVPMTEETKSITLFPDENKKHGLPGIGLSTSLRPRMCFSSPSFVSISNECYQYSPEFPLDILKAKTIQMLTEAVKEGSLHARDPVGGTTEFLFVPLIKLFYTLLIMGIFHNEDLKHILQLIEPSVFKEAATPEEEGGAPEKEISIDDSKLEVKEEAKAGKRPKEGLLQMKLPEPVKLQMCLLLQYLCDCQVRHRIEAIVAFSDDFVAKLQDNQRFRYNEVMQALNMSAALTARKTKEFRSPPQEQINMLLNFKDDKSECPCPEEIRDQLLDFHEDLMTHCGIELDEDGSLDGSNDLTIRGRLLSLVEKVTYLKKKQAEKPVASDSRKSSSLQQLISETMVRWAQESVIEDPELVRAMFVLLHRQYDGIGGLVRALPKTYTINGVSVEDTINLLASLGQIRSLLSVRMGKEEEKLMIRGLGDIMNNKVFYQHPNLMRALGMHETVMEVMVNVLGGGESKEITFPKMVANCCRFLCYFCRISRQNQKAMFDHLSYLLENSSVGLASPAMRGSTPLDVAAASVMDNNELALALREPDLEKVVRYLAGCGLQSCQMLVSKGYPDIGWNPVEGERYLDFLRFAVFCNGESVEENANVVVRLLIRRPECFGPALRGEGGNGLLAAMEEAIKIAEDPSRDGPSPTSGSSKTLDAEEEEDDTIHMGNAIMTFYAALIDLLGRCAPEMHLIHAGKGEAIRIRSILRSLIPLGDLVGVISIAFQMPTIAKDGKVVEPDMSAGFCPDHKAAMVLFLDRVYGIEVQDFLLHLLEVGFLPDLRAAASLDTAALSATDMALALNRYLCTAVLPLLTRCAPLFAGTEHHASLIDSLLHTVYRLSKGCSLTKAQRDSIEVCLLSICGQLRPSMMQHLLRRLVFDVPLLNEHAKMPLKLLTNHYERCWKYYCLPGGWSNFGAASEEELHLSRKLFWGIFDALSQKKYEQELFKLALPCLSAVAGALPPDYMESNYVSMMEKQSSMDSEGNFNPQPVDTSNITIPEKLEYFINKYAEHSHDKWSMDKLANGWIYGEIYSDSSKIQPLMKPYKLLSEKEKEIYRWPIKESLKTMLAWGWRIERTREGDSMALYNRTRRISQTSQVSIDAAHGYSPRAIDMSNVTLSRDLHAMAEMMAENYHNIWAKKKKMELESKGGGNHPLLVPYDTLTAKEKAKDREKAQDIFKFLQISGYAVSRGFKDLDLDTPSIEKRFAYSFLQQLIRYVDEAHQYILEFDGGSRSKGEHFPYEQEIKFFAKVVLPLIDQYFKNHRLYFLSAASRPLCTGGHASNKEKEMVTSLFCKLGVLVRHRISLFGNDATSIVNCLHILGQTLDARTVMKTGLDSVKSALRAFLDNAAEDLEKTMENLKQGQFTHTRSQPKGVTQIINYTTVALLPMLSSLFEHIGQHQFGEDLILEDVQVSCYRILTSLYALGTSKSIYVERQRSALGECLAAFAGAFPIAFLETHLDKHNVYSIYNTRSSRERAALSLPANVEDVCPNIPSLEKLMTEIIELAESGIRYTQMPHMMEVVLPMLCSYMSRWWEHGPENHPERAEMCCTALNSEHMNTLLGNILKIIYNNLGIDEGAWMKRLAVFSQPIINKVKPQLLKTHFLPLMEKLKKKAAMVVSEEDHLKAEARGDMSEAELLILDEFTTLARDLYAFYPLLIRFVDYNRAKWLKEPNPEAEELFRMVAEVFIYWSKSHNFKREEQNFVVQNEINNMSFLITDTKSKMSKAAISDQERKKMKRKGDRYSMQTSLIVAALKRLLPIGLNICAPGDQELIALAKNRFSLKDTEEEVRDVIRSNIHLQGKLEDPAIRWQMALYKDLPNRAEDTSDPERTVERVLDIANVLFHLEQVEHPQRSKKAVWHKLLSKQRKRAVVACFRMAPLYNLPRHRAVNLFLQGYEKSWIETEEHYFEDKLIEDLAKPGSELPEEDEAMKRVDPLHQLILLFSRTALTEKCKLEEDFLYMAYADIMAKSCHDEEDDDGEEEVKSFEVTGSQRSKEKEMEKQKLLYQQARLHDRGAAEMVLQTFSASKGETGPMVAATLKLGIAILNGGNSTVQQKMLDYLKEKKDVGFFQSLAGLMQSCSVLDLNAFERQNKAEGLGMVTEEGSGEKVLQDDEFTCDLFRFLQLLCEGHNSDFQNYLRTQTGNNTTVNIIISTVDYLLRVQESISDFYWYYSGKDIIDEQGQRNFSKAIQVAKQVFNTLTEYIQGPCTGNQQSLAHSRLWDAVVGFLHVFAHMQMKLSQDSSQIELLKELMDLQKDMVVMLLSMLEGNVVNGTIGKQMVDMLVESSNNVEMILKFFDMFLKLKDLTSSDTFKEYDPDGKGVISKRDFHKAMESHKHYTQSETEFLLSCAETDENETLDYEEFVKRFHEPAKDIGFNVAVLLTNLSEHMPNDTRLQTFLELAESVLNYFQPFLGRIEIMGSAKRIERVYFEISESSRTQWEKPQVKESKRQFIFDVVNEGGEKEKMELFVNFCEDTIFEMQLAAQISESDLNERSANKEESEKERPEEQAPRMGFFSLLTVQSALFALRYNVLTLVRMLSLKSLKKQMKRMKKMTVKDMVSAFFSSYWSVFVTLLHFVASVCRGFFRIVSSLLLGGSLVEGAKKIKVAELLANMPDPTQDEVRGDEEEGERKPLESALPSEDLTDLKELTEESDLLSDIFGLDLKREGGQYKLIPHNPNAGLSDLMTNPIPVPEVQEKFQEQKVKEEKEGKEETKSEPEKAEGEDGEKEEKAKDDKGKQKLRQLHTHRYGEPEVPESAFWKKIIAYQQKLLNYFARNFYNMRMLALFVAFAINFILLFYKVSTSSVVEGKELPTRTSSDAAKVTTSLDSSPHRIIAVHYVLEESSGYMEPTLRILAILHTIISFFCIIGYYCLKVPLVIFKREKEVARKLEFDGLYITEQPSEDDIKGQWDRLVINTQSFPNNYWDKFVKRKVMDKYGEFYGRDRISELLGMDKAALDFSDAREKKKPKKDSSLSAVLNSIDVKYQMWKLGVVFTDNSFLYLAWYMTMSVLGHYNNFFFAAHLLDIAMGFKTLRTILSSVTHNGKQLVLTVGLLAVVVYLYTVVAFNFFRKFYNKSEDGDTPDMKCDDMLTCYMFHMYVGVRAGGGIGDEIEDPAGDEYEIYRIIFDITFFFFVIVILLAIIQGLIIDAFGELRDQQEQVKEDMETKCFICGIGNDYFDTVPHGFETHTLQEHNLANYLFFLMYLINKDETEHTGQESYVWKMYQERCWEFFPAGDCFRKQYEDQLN

Chain of Cardiac ryanodine receptor (RyR2) in rat ventricular myocytes (rat (endogenous in ventricular myocytes)) (B0LPN4 whole entry): as above

Kd [1] [nM] | Kd [2] [nM] | Kd [3] [nM] | Molecule
12 | 10 |  | Fluorescent calmodulin (CaM labeled with Alexa Fluor 568) (from UniProt P0DP23 1-149) (natural protein)
 |  | 0.8 ± 0.1 | Fluorescent FKBP12.6 (FK506 binding protein 12.6 labeled with Alexa Fluor 488) (natural protein, Alexa Fluor 488 label (site not stated)) MGVEIETISPGDGRCFPKKGQTAVVHYTGMLQNGKKFDSSRDRNKPFKFRIGKQEVIKGFEEGAAQMSLGQRAKLTITPDVAYGATGHPGVIPPNATLIFDVELLNLE

From PMC4004530 (Circulation research, 2013)
